Laboratory results: patent publication US20250154226A1, “LONG-ACTING GLP-1/GLP-2 DUAL AGONIST COMPOUND” (CHENGDU AODA BIOTECHNOLOGY CO., LTD, priority 2022, published 2025)
Values belong to the molecule of their own block, whether it stands above or below them. Starred links: 1 amine or outer side, 2 acyl side, 3 side chain; linkers in the order of their positions; H or OH if unused. Non-standard residues stand in square brackets, D forms with d. Residues, ends and D or L forms follow the SMILES beside them. Groups on a side chain read outwards from the residue. No end group written: not given here. *: point of attachment. C18 diacid = O=C(O)CCCCCCCCCCCCCCCCC(=O)*; γGlu = O=C(O)[C@H](CCC(=O)[*:2])N[*:1]; AEEA = NCCOCCOCC(=O)O; Aib = CC(C)(N)C(=O)O; AEA = NCCOCC(=O)O

Tests used:
GLP-1R = target: T1, GLP-1R (Homo sapiens, UniProt P43220); assay: Determination of GLP-1 activity: cAMP chemiluminescence (RLU) in CHO-K1 cell line stably expressing GLP-1R; type: cell-based; details: read-out: GLP-1 activity [EC50 (pmol)]
T1 construct: expressed in transfected cells; host or cells: CHO-K1
Procedure: (§1) GLP-1R, under the stimulation of its specific agonist, can activate the intracellular adenylate cyclase pathway, and increase the level of cAMP, finally leading to the generation and release of insulin. The stimulation of the cell lines stably transfected with GLP-1R by the agonist to be tested can lead to rapid increase in the intracellular cAMP level, and the relative light units (RLUs) after stimulating the cells at each dose are determined by chemiluminescence method to calculate the EC50 of the agonist. This method for determining activity is commonly used for GLP-1 receptor agonist activity analysis at home and abroad.
CHO-K1 cell line stably expressing GLP-1R was stimulated with the agonist at different concentrations. The EC50 value of the agonist was calculated by determining the relative light units after stimulating the cells at each dose.

GLP-2R = target: T2, GLP-2R (Homo sapiens, UniProt O95838); assay: Determination of GLP-2 activity: cAMP chemiluminescence (RLU) in CHO-K1 cell line stably expressing GLP-2R; type: cell-based; details: read-out: GLP-2 activity [EC50 (nmol)]
T2 construct: expressed in transfected cells; host or cells: CHO-K1
T2 sequence (O95838 1-553): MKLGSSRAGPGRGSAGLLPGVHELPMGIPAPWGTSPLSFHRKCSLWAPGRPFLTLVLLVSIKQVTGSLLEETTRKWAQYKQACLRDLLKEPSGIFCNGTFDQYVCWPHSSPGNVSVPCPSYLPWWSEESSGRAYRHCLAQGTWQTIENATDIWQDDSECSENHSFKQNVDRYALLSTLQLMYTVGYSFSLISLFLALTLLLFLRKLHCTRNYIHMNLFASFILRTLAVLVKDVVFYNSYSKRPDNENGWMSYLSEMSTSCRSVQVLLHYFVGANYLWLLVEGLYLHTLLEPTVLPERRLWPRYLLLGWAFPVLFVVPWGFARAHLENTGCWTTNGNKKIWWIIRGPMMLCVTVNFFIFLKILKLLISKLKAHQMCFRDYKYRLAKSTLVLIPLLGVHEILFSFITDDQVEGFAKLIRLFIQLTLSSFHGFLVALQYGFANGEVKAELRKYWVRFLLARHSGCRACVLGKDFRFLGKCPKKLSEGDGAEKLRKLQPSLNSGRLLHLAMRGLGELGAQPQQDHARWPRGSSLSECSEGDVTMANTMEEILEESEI
Procedure: as §1, with “GLP-2R, under” for “GLP-1R, under”, “for GLP-2” for “for GLP-1”
CHO-K1 cell line stably expressing GLP-2R was stimulated with the agonist at different concentrations. The EC50 value of the agonist was calculated by determining the relative light units after stimulating the cells at each dose.

[1] = target: glucagon-like peptide-1 (GLP-1) receptor
[2] = target: glucagon-like peptide-2 (GLP-2) receptor

T1 sequence (P43220 24-463, species assumed): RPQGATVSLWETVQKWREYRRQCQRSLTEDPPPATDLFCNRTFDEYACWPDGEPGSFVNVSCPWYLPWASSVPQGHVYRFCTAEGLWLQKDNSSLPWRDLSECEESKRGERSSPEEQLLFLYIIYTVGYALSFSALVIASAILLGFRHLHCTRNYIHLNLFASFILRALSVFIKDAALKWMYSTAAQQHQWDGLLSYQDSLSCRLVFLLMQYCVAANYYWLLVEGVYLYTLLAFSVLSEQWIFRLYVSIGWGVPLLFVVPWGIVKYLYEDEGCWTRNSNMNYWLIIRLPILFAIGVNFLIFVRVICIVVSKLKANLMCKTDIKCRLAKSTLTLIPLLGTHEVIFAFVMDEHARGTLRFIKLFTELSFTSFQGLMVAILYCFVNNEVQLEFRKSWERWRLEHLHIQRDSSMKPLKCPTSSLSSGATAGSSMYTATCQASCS

EC50 (GLP-1R): 0.0601 nM
EC50 (GLP-2R): 4.7 nM
Molecule: CC[C@H](C)[C@H](NC(=O)[C@H](Cc1ccccc1)NC(=O)[C@H](CC(=O)O)NC(=O)[C@H](CCCNC(=N)N)NC(=O)[C@H](C)NC(=O)[C@H](C)NC(=O)[C@H](CCC(N)=O)NC(=O)[C@H](CCCCNC(=O)COCCOCCNC(=O)CC[C@H](NC(=O)CCCCCCCCCCCCCCCCC(=O)O)C(=O)O)NC(=O)[C@H](CC(=O)O)NC(=O)[C@H](CC(C)C)NC(=O)[C@@H](NC(=O)[C@@H](NC(=O)[C@H](C)NC(=O)[C@H](CC(C)C)NC(=O)[C@H](CCC(=O)O)NC(=O)[C@H](CO)NC(=O)[C@@H](NC(=O)[C@H](Cc1ccccc1)NC(=O)[C@H](CO)NC(=O)CNC(=O)[C@H](CCC(=O)O)NC(=O)C(C)(C)NC(=O)[C@@H](N)Cc1c[nH]cn1)[C@@H](C)O)[C@@H](C)O)[C@@H](C)CC)C(=O)N[C@@H](C)C(=O)N[C@@H](Cc1c[nH]c2ccccc12)C(=O)N[C@@H](CC(C)C)C(=O)N[C@H](C(=O)N[C@@H](CCC(N)=O)C(=O)N[C@@H](Cc1c[nH]cn1)C(=O)N[C@@H](CCCCN)C(=O)N[C@H](C(=O)N[C@H](C(=O)N[C@@H](CC(=O)O)C(N)=O)[C@@H](C)O)[C@@H](C)CC)[C@@H](C)CC [Compound 3, His-Aib-Glu-Gly-Ser-Phe-Thr-Ser-Glu-Leu-Ala-Thr-Ile-Leu-Asp-Lys(AEEA-γGlu-octadecanedioic acid)-Gln-Ala-Ala-Arg-Asp-Phe-Ile-Ala-Trp-Leu-Ile-Gln-His-Lys-Ile-Thr-Asp-NH2] (H-H[Aib]EGSFTSELATILDK([AEEA-γGlu-C18 diacid])QAARDFIAWLIQHKITD-NH2)

GLP-1 activity [EC50 (pmol)] [1]: 79.5 pmol
GLP-2 activity [EC50 (nmol)] [2]: 4.62 nmol
Molecule: H[Aib]EGSFTSELATILDK([PEG5CH2CO-γGlu-C18 diacid])QAARDFIAWLIQHKITD-NH2 [Compound 6]

GLP-1 activity [EC50 (pmol)] [1]: 60.1 pmol
GLP-2 activity [EC50 (nmol)] [2]: 4.7 nmol
B2: Compound 3 (peptide)
peptide: H[Aib]EGSFTSELATILDK([AEEA-γGlu-C18 diacid])QAARDFIAWLIQHKITD-NH2
modifications: N-terminus assumed
SMILES: CC[C@H](C)[C@H](NC(=O)[C@H](Cc1ccccc1)NC(=O)[C@H](CC(=O)O)NC(=O)[C@H](CCCNC(=N)N)NC(=O)[C@H](C)NC(=O)[C@H](C)NC(=O)[C@H](CCC(N)=O)NC(=O)[C@H](CCCCNC(=O)COCCOCCNC(=O)CC[C@H](NC(=O)CCCCCCCCCCCCCCCCC(=O)O)C(=O)O)NC(=O)[C@H](CC(=O)O)NC(=O)[C@H](CC(C)C)NC(=O)[C@@H](NC(=O)[C@@H](NC(=O)[C@H](C)NC(=O)[C@H](CC(C)C)NC(=O)[C@H](CCC(=O)O)NC(=O)[C@H](CO)NC(=O)[C@@H](NC(=O)[C@H](Cc1ccccc1)NC(=O)[C@H](CO)NC(=O)CNC(=O)[C@H](CCC(=O)O)NC(=O)C(C)(C)NC(=O)[C@@H](N)Cc1c[nH]cn1)[C@@H](C)O)[C@@H](C)O)[C@@H](C)CC)C(=O)N[C@@H](C)C(=O)N[C@@H](Cc1c[nH]c2ccccc12)C(=O)N[C@@H](CC(C)C)C(=O)N[C@H](C(=O)N[C@@H](CCC(N)=O)C(=O)N[C@@H](Cc1c[nH]cn1)C(=O)N[C@@H](CCCCN)C(=O)N[C@H](C(=O)N[C@H](C(=O)N[C@@H](CC(=O)O)C(N)=O)[C@@H](C)O)[C@@H](C)CC)[C@@H](C)CC

GLP-1 activity [EC50 (pmol)] [1]: 72.8 pmol
GLP-2 activity [EC50 (nmol)] [2]: 5.54 nmol
Molecule: H[Aib]EGSFTSELATILDK([PEG4CH2CO-γGlu-C18 diacid])QAARDFIAWLIQHKITD-NH2 [Compound 5]

GLP-1 activity [EC50 (pmol)] [1]: 60 pmol
GLP-2 activity [EC50 (nmol)] [2]: 4.33 nmol
Molecule: H[Aib]EGSFTSELATILDK([PEG3CH2CO-γGlu-C18 diacid])QAARDFIAWLIQHKITD-NH2 [Compound 4]

The remaining lines, values behind:

Molecule: CC[C@H](C)[C@H](NC(=O)[C@H](Cc1ccccc1)NC(=O)[C@H](CC(=O)O)NC(=O)[C@H](CCCNC(=N)N)NC(=O)[C@H](C)NC(=O)[C@H](C)NC(=O)[C@H](CCC(N)=O)NC(=O)[C@H](CCCCNC(=O)COCCNC(=O)CC[C@H](NC(=O)CCCCCCCCCCCCCCCCC(=O)O)C(=O)O)NC(=O)[C@H](CC(=O)O)NC(=O)[C@H](CC(C)C)NC(=O)[C@@H](NC(=O)[C@@H](NC(=O)[C@H](C)NC(=O)[C@H](CC(C)C)NC(=O)[C@H](CCC(=O)O)NC(=O)[C@H](CO)NC(=O)[C@@H](NC(=O)[C@H](Cc1ccccc1)NC(=O)[C@H](CO)NC(=O)CNC(=O)[C@H](CCC(=O)O)NC(=O)C(C)(C)NC(=O)[C@@H](N)Cc1c[nH]cn1)[C@@H](C)O)[C@@H](C)O)[C@@H](C)CC)C(=O)N[C@@H](C)C(=O)N[C@@H](Cc1c[nH]c2ccccc12)C(=O)N[C@@H](CC(C)C)C(=O)N[C@H](C(=O)N[C@@H](CCC(N)=O)C(=O)N[C@@H](Cc1c[nH]cn1)C(=O)N[C@@H](CCCCN)C(=O)N[C@H](C(=O)N[C@H](C(=O)N[C@@H](CC(=O)O)C(N)=O)[C@@H](C)O)[C@@H](C)CC)[C@@H](C)CC [Compound 2, His-Aib-Glu-Gly-Ser-Phe-Thr-Ser-Glu-Leu-Ala-Thr-Ile-Leu-Asp-Lys(PEG1CH2CO-γGlu-octadecanedioic acid)-Gln-Ala-Ala-Arg-Asp-Phe-Ile-Ala-Trp-Leu-Ile-Gln-His-Lys-Ile-Thr-Asp-NH2] (H-H[Aib]EGSFTSELATILDK([AEA-γGlu-C18 diacid])QAARDFIAWLIQHKITD-NH2; N-terminus assumed)
EC50 (GLP-1R): 0.0686 nM
EC50 (GLP-2R): 5.51 nM

B1: Compound 1 (peptide)
peptide: H[Aib]EGSFTSELATILDK([γGlu-C18 diacid])QAARDFIAWLIQHKITD-NH2
modifications: N-terminus assumed
SMILES: CC[C@H](C)[C@H](NC(=O)[C@H](Cc1ccccc1)NC(=O)[C@H](CC(=O)O)NC(=O)[C@H](CCCNC(=N)N)NC(=O)[C@H](C)NC(=O)[C@H](C)NC(=O)[C@H](CCC(N)=O)NC(=O)[C@H](CCCCNC(=O)CC[C@H](NC(=O)CCCCCCCCCCCCCCCCC(=O)O)C(=O)O)NC(=O)[C@H](CC(=O)O)NC(=O)[C@H](CC(C)C)NC(=O)[C@@H](NC(=O)[C@@H](NC(=O)[C@H](C)NC(=O)[C@H](CC(C)C)NC(=O)[C@H](CCC(=O)O)NC(=O)[C@H](CO)NC(=O)[C@@H](NC(=O)[C@H](Cc1ccccc1)NC(=O)[C@H](CO)NC(=O)CNC(=O)[C@H](CCC(=O)O)NC(=O)C(C)(C)NC(=O)[C@@H](N)Cc1c[nH]cn1)[C@@H](C)O)[C@@H](C)O)[C@@H](C)CC)C(=O)N[C@@H](C)C(=O)N[C@@H](Cc1c[nH]c2ccccc12)C(=O)N[C@@H](CC(C)C)C(=O)N[C@H](C(=O)N[C@@H](CCC(N)=O)C(=O)N[C@@H](Cc1c[nH]cn1)C(=O)N[C@@H](CCCCN)C(=O)N[C@H](C(=O)N[C@H](C(=O)N[C@@H](CC(=O)O)C(N)=O)[C@@H](C)O)[C@@H](C)CC)[C@@H](C)CC
GLP-1 activity [EC50 (pmol)] [1]: 94.7 pmol
GLP-2 activity [EC50 (nmol)] [2]: 6.04 nmol

Molecule: H[Aib]EGSFTSELATILDK([PEG1CH2CO-γGlu-C18 diacid])QAARDFIAWLIQHKITD-NH2 [Compound 2]
GLP-1 activity [EC50 (pmol)] [1]: 68.7 pmol
GLP-2 activity [EC50 (nmol)] [2]: 5.51 nmol
